Consider one molecule from article PMC3223204, “Implantation Serine Proteinase 1 Exhibits Mixed Substrate Specificity that Silences Signaling via Proteinase-Activated Receptors” (PLoS ONE, 2011).

For experiment [1], the target named is T1, human PAR1 (Homo sapiens, UniProt P25116, INS26FLNCCPGCCMEPA).
T1 construct: expressed in transfected cells; host or cells: COS-1
T1 sequence (P25116 with tags, fused parts or gaps limits assumed): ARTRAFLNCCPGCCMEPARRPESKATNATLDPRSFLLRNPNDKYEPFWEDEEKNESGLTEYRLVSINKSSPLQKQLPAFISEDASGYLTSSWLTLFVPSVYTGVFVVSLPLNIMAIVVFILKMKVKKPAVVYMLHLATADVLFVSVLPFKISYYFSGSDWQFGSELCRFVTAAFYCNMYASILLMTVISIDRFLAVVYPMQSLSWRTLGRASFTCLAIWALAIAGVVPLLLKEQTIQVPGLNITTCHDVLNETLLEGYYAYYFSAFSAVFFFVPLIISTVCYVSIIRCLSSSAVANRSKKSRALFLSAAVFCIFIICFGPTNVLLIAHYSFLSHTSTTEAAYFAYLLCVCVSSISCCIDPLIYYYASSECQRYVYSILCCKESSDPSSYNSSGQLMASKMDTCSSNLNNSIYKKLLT
The experiment can be described thus: Release of N-terminal BAB motif from PAR1 on COS-1 cells. The experiment is classed as cell-based. The note with it: 0.1 and 0.5 units per ml, 37°C, 30 minutes. An excerpt:
(§1) The biarsenical fluorochrome binding domain (BAB), containing a tetra-cysteine motif, […] for PAR1, […] for PAR2 and […] for PAR4 was inserted into the receptor N-terminal domains by introducing corresponding oligonucleotides just downstream of the signal peptide of PARs, after A26 for human PAR1, Q27 for human PAR2 and V25 for human PAR4. The PAR DNA constructs containing the N-terminal BAB domain and a YFP C-terminal fluorochrome tag were cloned in pCDNA3.1+ at the restriction enzyme sites between Eco RI and Xba I. COS-1 cells obtained from ATCC (Manassas, VA USA) were transected with the PAR constructs with the FuGENE6 transfection reagent (Roche Applied Bioscience). The expression level of the expressed receptor was quantified using a fluorescence plate reader, (Victor 4X, Perkin-Elmer), and confocal microscopy was used to monitor the receptor location by visualizing the receptor YFP tag. […] Then, the peptide(s) containing the receptor BAB tetracysteine motif released by proteinases from the receptor N-terminus into the cell culture supernatant was quantified using a Victor X4 fluorescent plate reader with an excitation wavelength of 540 nm and an emission wavelength monitored at 615 nm. […]

The target of experiment [2] is T2, human PAR2 (Homo sapiens, UniProt P55085).
T2 construct: expressed in transfected cells; host or cells: COS-1
T2 sequence (P55085 with tags, fused parts or gaps limits assumed): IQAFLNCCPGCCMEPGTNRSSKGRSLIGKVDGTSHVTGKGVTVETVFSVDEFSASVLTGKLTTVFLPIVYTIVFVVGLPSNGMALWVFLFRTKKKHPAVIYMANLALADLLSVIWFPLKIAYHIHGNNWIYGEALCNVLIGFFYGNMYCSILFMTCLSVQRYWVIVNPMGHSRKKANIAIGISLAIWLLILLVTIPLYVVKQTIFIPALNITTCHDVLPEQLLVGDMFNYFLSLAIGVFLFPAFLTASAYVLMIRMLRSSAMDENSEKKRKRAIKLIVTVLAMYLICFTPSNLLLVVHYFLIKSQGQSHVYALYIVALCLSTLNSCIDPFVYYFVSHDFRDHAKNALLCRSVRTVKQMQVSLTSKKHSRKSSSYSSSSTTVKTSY
In words: Release of N-terminal BAB motif from PAR2 on COS-1 cells. It is filed as cell-based. The settings on record: 0.1 and 0.5 units per ml, 37°C, 30 minutes.
Text: as §1

The target in experiment [3] is T3, human PAR4 (Homo sapiens, UniProt Q96RI0, INS25FLNCCPGCCMEP).
T3 construct: expressed in transfected cells; host or cells: COS-1
T3 sequence (Q96RI0 with tags, fused parts or gaps): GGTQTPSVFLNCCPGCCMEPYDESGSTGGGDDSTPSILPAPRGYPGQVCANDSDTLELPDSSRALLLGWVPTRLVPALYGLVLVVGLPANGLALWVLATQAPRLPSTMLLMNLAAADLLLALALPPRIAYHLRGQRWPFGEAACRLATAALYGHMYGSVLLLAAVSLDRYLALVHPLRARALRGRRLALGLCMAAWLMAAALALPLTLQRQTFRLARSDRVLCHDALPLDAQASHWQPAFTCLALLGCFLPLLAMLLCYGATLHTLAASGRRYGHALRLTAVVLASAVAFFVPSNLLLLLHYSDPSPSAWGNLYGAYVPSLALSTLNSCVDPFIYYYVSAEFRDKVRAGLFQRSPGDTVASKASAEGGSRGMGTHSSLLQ
The experiment can be described thus: Release of N-terminal BAB motif from PAR4 on COS-1 cells. The experiment is classed as cell-based. The note with it: 0.1 and 0.5 units per ml, 37°C, 30 minutes.
Text: as §1

In experiment [4] the target is T4, trypsin (Sus scrofa, UniProt P00761).
T4 construct: Porcine trypsin (cat. number T-3030; 14,500 units/mg); purchased Sigma-Aldrich T-3030 (printed as T0303); host or cells: porcine pancreas
The experiment can be described thus: Effect of ISP1 on enzyme activity of trypsin. It is filed as biochemical. The settings on record: data not shown.

T4 sequence (P00761 9-231): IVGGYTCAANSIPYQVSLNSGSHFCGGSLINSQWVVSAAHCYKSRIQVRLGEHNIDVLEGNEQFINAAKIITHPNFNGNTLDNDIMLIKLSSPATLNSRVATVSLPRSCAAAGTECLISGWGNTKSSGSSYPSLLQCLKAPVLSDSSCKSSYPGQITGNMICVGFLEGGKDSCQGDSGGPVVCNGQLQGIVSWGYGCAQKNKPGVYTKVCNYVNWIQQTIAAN

B1: ISP1: recombinant implantation serine proteinase 1 expressed in Pichia pastoris, also known as Mouse Prss28 (protein, UniProt Q924N9 27-274, looked up)
Serine protease 28: KPVGIVGGQRTPPGKWPWQVSLRMYSYEVNSWVHICGGSIIHPQWILTAAHCIQSQDADPAVYRVQVGEVYLYKEQELLNISRIIIHPDYNDVSKRFDLALMQLTALLVTSTNVSPVSLPKDSSTFDSTDQCWLVGWGNLLQRVPLQPPYQLHEVKIPIQDNKSCKRAYRKKSSDEHKAVAIFDDMLCAGTSGRGPCFGDSGGPLVCWKSNKWIQVGVVSKGIDCSNNLPSIFSRVQSSLAWIHQHIQ
modifications: recombinant, Pichia pastoris-expressed
notes: recombinant implantation serine proteinase 1 expressed in Pichia pastoris, also known as Mouse Prss28
Take B1: the “Release of PAR1 N-terminal BAB domain (PAR cleavage activity)” value in experiment [1] is reported as “significant concentration-dependent PAR cleavage activity”. Besides, the “Release of PAR2 N-terminal BAB domain (PAR cleavage activity)” value in experiment [2] is “significant concentration-dependent PAR cleavage activity”. In experiment [3], the “Release of PAR4 N-terminal BAB domain (PAR cleavage activity)” value is reported as “significant concentration-dependent PAR cleavage activity”. Besides, the “Inhibitory effect on enzyme activity of trypsin” value in experiment [4] is “doesn't have any inhibitory effect”.
